Test results as given in the supplement of paper PMC10567573.

B1: C9orf25 (parent)
chain: LARKGSLKNGSMGSPVNQQPKKNN
B2: ZNF263 (parent)
chain: VPGTQVGQGGKLWDPSVQSCKEGL

Variants of: B1
Experiment: protein stability index of a GFP-peptide fusion (GPS, HEK-293T) (PSI 1-6); higher = more stable
Conditions: c terminus: a fixed tail appended
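Note: lentivirally expressed fusions sorted by FACS into six bins by GFP to DsRed ratio, PSI derived from sequencing read proportions per bin multiplied by bin number.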

Protein stability index: each site, then its substitutions
N24: R 4.42 | H 4.79 | G 4.76 | F 3.96 | C 4.69 | V 3.85 | E 4.14 | K 5.08 | S 4.7 | I 3.82 | P 4.48 | L 4.76 | Q 4.85 | A 4.52 | D 4.85 | T 4.83 | M 4.02 | Y 3.78 | W 3.88
K22: Q 4.82 | R 4.37 | S 4.41 | V 3.17 | P 4.42 | W 3.9 | Y 3.81 | N 4.43 | T 4.28
N23: L 4.04 | S 4.58 | F 4.19 | K 4.61 | H 4.91 | D 5.02 | W 4 | V 4.59 | C 4.68 | A 4.63 | E 4.68 | G 4.66 | P 5.24 | R 4.18 | I 4.61 | T 4.89 | M 3.73 | Q 4.64 | Y 3.82

Variants of: B2
Experiment: as above
Conditions: c terminus: a fixed tail appended

Protein stability index: each site, then its substitutions
W13: Y 4.57 | D 4.4 | K 4.61 | G 5.5 | N 5.12 | T 4.79 | P 4.72
G7: K 3.81 | M 3.91 | T 3.33 | C 4.29 | S 4.41 | H 3.78 | W 4.06 | D 4.24
L12: R 4.36 | F 4.26 | H 4.45 | C 3.94
E22: C 3.42 | A 3.06 | M 3.13 | D 4.25
S16: Q 4.38 | L 3.53 | V 4.02 | K 4.11 | A 4.88 | H 4.27
K11: R 4.46 | C 4.57 | G 4.44 | E 4.22 | N 4.54
S19: P 4.33 | E 4.38 | H 4.05 | K 4.25 | Y 3.76 | C 3.39 | Q 4.3 | A 4.35
Q8: L 3.79 | E 3.48 | P 4.07 | N 4.24
L24: C 3.9
D14: P 3.44 | T 3.79 | M 3.36 | F 3.07
K21: R 4.04 | Y 3.4 | C 4.64 | M 3.92
P2: C 3.61 | Q 3.87 | T 3.86 | G 4.28 | A 4.17 | I 3.19
Q5: E 3.94 | K 4.21
V6: Y 3.82 | N 4.47 | C 3.49
Q18: D 4.54 | W 3 | L 3.97 | C 3.63 | F 3.2 | G 4.92 | P 4.38 | S 3.88
C20: M 4.43 | N 4.68 | A 4.15 | I 3.79 | H 3.6 | E 5.02 | V 4.36
V1: L 3.53 | P 4.78 | I 4.31 | C 4.28
V17: D 4.92 | K 4.33
G23: C 3.59 | W 3.12 | Q 3.51 | R 4.34 | D 4.36 | T 3.96 | P 4.32
P15: T 4.25 | K 4.23 | C 3.75 | E 4.94 | M 3.54 | S 4.03 | R 4.16
G10: W 2.45 | C 3.24 | I 3.53 | H 4.02 | M 4.28 | P 4.47 | K 4.5
G3: I 4.3 | C 4.12 | F 3.01
T4: Q 4.23 | L 4.38 | C 4 | R 3.92
G9: P 3.25 | E 4.61 | T 4.25 | D 4.55 | K 4.25
